Measured values taken from patent US20230340151A1 (Pfizer, published 2023).

What was measured:
Assay in all cases: flow cytometry on cells displaying the construct
[1] = biological target: T1, CID1876 (human-chicken GUCY2c chimera) (human/chicken)
T1 chain: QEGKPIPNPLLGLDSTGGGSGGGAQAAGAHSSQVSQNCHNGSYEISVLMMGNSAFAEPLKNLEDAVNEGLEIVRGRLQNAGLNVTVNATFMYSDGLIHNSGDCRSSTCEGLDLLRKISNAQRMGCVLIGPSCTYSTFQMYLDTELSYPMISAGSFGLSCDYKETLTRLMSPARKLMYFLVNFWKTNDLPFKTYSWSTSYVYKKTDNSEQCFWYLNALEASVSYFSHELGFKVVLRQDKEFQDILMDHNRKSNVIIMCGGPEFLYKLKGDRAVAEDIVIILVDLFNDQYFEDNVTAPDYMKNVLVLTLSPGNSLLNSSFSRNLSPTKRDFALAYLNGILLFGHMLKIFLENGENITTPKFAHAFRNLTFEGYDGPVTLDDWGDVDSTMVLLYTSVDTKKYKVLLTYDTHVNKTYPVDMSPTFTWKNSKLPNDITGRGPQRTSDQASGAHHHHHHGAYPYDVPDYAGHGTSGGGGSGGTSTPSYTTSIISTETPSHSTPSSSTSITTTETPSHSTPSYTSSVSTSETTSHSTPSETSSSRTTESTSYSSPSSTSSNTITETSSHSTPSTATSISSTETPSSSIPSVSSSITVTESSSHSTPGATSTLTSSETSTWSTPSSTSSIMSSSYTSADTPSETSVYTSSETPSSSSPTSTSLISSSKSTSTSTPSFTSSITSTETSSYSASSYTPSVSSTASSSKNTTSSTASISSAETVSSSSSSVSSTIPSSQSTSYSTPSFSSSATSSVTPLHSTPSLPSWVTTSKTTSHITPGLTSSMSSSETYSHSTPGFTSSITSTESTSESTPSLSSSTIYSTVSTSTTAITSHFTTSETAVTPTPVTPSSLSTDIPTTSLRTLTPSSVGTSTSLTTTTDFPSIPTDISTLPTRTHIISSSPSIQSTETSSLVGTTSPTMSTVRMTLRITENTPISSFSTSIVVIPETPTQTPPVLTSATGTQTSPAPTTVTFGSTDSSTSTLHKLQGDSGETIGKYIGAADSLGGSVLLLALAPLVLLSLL
Excerpt: (§1) Cells were then washed three times with PBS+0.5% BSA buffer. […] Cells were washed three times with PBS+0.5% BSA buffer and then analyzed on a flow cytometer.
(§2) MFI (median fluorescence intensity) of anti-GUCY2c antibody binding to the cells was normalized to expression on cell surface measured by MFI of anti-tag antibodies. All the cells expressed V5 and HA on the cell surface for expression normalization.

[2] = biological target: T2, CID1878 (human-chicken GUCY2c chimera) (human/chicken)
T2 chain: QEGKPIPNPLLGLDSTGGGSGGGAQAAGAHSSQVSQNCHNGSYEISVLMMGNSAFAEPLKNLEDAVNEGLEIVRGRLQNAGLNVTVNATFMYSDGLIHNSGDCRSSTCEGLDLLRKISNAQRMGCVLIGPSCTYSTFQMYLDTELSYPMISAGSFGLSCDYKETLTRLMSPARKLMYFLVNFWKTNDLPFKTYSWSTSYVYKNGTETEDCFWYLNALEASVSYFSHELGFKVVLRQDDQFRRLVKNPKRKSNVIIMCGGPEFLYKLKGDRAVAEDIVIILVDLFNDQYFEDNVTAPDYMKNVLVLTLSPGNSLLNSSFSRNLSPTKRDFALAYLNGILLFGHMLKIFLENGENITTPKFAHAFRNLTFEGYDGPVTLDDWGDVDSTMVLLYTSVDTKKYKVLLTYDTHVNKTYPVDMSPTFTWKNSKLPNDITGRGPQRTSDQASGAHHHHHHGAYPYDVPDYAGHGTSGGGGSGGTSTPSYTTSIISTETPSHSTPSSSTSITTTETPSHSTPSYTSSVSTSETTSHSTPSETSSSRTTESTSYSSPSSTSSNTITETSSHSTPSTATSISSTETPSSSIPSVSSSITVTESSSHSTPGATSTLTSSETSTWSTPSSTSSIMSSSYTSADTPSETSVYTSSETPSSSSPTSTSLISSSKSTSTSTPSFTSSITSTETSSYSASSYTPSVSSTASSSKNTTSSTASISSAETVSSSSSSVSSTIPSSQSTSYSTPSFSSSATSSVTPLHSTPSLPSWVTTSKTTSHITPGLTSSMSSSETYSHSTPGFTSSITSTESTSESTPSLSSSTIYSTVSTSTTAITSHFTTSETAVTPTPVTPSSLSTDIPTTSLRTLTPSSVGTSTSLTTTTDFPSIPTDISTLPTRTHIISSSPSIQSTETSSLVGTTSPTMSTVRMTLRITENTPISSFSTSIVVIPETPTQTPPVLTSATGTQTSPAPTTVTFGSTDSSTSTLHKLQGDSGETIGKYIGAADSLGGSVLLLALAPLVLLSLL
Excerpt: as §1, §2

[3] = biological target: CID1942 (human GUCY2c point mutant) (human)
Excerpt: as §1, §2

[4] = biological target: CID1947 (human GUCY2c point mutant) (human)
Excerpt: as §1, §2

Measured: binding result

B1: GUCY2C-1608 (bispecific antibody)
chain 1: DIQLTQSPSSLSASVGDRVTITCRASESVDYYGSSLLQWYQQKPGKAPKLLIYAASKLASGVPSRFSGSGSGTDFTLTISSLQPEDFATYYCQQTRKAYTFGQGTKLEIKGGGSGGGGEVQLVESGGGLVQPGGSLRLSCAASGFTFSDYYMTWVRQAPGKGLEWVAFIRNQARGYTSDHNPSVKGRFTISRDNAKNSLYLQMNSLRAEDTAVYYCARDRPSYYVLDYWGQGTTVTVSSGCPPCPAPEAAGAPSVFLFPPKPKDTLMISRTPEVTCVVVDVSHEDPEVKFNWYVDGVEVHNAKTKPREEQYNSTYRVVSVLTVLHQDWLNGKEYKCKVSNKALPAPIEKTISKAKGQPREPQVCTLPPSREEMTKNQVSLWCLVKGFYPSDIAVEWESNGQPENNYKTTPPVLDSDGSFFLYSKLTVDKSRWQQGNVFSCSVMHEALHNHYTQKSLSLSPG
chain 2: DIQMTQSPSSLSASVGDRVTITCTSSQSLFNVRSQKNYLAWYQQKPGKAPKLLIYWASTRESGVPSRFSGSGSGTDFTLTISSLQPEDFATYYCKQSYDLFTFGGGTKVEIKGGGGSGGGGEVQLVESGGGLVQPGGSLRLSCAASGFTFSSYWMHWVRQAPGKGLEWIGEIKPSNELTNVHEKFKDRFTISVDKAKNSAYLQMNSLRAEDTAVYYCTRTITTTEGYWFFDVWGQGTLVTVSSGCPPCPAPEAAGAPSVFLFPPKPKDTLMISRTPEVTCVVVDVSHEDPEVKFNWYVDGVEVHNAKTKPREEQYNSTYRVVSVLTVLHQDWLNGKEYKCKVSNKALPAPIEKTISKAKGQPREPQVYTLPPCREEMTKNQVSLSCAVKGFYPSDIAVEWESNGQPENNYKTTPPVLDSDGSFFLVSKLTVDKSRWQQGNVFSCSVMHEALHNHYTQKSLSLSPG
notes: also called GUCY2c CD3 bispecific
binds: all assays above
